According to publication PMC12324679:

Assays:
PuPuf4 (Pythium ultimum) = assay: MST; conditions: MST: 50 mM Tris pH 7.5, 150 mM NaCl, 10 mM MgCl2, 0.05% Tween 20, 25 C; EMSA: Beyotime EMSA/Gel-Shift Binding Buffer, 50 ng RNA, 25 C 30 min, 1% agarose gel
[1] = system: PuPuf4 R111A F147A K368A (Pythium ultimum); assay: MST; conditions: MST: 50 mM Tris pH 7.5, 150 mM NaCl, 10 mM MgCl2, 0.05% Tween 20, 25 C; EMSA: Beyotime EMSA/Gel-Shift Binding Buffer, 50 ng RNA, 25 C 30 min, 1% agarose gel

GCCCAGUGCUCUGAAUGUCAAAGUGAAGAGAUUCACCAAGCGGCGGGUAAACGCG [H68 rRNA]
Kd (PuPuf4 (Pythium ultimum)): 240 nM
Kd [1]: 620 nM
